The target in assay [1] is S蛋白, SARS-CoV-2 XBB.1.5 (SARS-CoV-2 XBB.1.5). The assay can be described thus: cell-based or functional assay.
In assay [2] the target is S蛋白, SARS-CoV-2 XBB (SARS-CoV-2 XBB). The assay can be described thus: cell-based or functional assay.
For assay [3], the target named is S蛋白, SARS-CoV-2 Delta (SARS-CoV-2 Delta). The assay can be described thus: cell-based or functional assay.
For assay [4], the target named is S蛋白, SARS-CoV-2 BQ.1 (SARS-CoV-2 BQ.1). The assay can be described thus: cell-based or functional assay.
The target of assay [5] is S蛋白, SARS-CoV-2 BA.1 (SARS-CoV-2 BA.1). The assay can be described thus: cell-based or functional assay.
In assay [6] the target is S蛋白, SARS-CoV-2 BA.4/5 (SARS-CoV-2 BA.4/5). Put plainly: cell-based or functional assay.
Assay [7] concerns the target S蛋白, SARS-CoV-2 BQ.1.1 (SARS-CoV-2 BQ.1.1). Put plainly: cell-based or functional assay.
Assay [8] deals with S蛋白, SARS-CoV-2 BF.7 (SARS-CoV-2 BF.7). Put plainly: cell-based or functional assay.
Assay [9] addresses S蛋白, SARS-CoV-2 BA.2.75 (SARS-CoV-2 BA.2.75). The assay can be described thus: cell-based or functional assay.
Assay [10] deals with SARS-CoV-2(BA.5) Spike RBD (SARS-CoV-2 BA.5). Put plainly: SPR (Biacore 8K), antibody captured on Protein A chip, RBD as analyte. In general terms: SPR reads the build-up and loss of mass on a sensor chip optically.
Assay [11] concerns the target SARS-CoV-2(BF.7) Spike RBD (SARS-CoV-2 BF.7). The description is as above.

As usually defined, the Kd is a measure of binding affinity in units of concentration. A low value points to higher affinity.

Regarding LY-CoV1404 (antibody), the 假病毒中和活性 IC50 in [1] was over 2000 ng/mL; in assay [2], over 2000 ng/mL; in assay [3], 3.05 ng/mL; in assay [4], over 2000 ng/mL; in assay [5], 1.44 ng/mL; in [6], 1.22 ng/mL. The values for the 假病毒中和活性 IC50 in [7], in assay [8] and in assay [9] were over 2000 ng/mL, 2.14 ng/mL and 25.1 ng/mL, respectively. In addition, the Kd in assay [10] is 0.184 nM; in assay [11], 0.162 nM.

Values taken from CN117603358A.
